According to paper PMC8547954, “Myopalladin knockout mice develop cardiac dilation and show a maladaptive response to mechanical pressure overload” (eLife, 2021):

Assays:
Details in all cases: both partners purified
[1] = molecular target: T1, human MYPN C-terminal region including three Ig domains (MYPN C-term; Res. 813-1320), N-terminal 6xHis-tag (human, UniProt Q86TC9-1 813-1320, NT-647 dye via NHS-driven amino coupling (only where it was the labelled partner, Figure 1C)); test: MST; 400 nM NT-647-labelled MYPN C-term titrated with titin Ig Z4-Z5; 30 min at room temperature in 20 mM Tris-HCl pH 8, 150 mM NaCl, 5 mM EDTA, 4 mM DTT; Hill fit; full saturation reached; apparent
T1 construct: Unlabelled in assay a3, labelled with NT-647 in assay a4; also called MYPN C-terminal fragment; MYPN C-terminal domain; source: E. coli BL21-CodonPlus (DE3)-RIPL, purified (HisTrap, Superdex 75 SEC)
T1 sequence (looked up): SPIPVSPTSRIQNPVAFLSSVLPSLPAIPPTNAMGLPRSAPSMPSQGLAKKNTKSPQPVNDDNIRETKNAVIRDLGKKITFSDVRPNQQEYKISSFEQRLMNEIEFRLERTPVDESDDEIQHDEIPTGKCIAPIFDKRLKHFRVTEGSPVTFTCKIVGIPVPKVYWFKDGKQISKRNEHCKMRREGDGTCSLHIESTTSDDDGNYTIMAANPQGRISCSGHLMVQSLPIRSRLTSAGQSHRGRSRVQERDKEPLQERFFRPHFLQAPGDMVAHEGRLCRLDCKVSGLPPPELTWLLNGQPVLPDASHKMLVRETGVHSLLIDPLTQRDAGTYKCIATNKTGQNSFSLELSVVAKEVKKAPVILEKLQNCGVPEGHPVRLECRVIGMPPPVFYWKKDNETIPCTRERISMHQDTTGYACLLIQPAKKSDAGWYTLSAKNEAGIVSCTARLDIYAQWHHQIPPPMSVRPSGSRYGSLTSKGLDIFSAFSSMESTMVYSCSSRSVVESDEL

[2] = molecular target: T1, human MYPN C-terminal region including …; test: MST; 450 nM NT-647-labelled titin Ig Z4-Z5 titrated with MYPN (up to 20 µM) or PALLD (up to 30 µM) C-term; 30 min at room temperature in 20 mM Tris-HCl pH 8, 150 mM NaCl, 5 mM EDTA, 4 mM DTT; Hill fit; saturation not reached, Kd could not be unequivocally determined; apparent
[3] = molecular target: T2, PALLD C-terminal region (PALLD C-term; Res. 794-1123), N-terminal 6xHis-tag followed by a human rhinovirus 3C … (human, UniProt Q8WX93-9 794-1123); test: as above
T2 construct: numbers count on: NM_001166108.1; A 3C protease site follows the tag; also called homologous fragment of PALLD; PALLD C-terminal domain; source: E. coli BL21-CodonPlus (DE3)-RIPL, purified (HisTrap, Superdex 75 SEC)
T2 sequence (looked up): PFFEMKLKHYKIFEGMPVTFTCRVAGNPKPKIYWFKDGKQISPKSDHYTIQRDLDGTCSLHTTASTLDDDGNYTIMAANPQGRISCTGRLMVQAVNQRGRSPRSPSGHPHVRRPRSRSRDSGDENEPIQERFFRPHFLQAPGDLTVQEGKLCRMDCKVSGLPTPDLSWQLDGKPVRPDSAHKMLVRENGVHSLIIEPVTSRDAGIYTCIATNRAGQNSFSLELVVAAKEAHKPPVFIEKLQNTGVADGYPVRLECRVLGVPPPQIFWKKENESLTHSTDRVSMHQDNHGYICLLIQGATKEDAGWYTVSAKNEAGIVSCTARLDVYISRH

B1: titin Ig domains Z4-Z5 (Res. 942-1173), N-terminal 6xHis-tag (domain or fragment, human, UniProt Q8WZ42-1 942-1173, looked up)
chain: PPTLVSGLKNVTVIEGESVTLECHISGYPSPTVTWYREDYQIESSIDFQITFQSGIARLMIREAFAEDSGRFTCSAVNEAGTVSTSCYLAVQVSEEFEKETTAVTEKFTTEEKRFVESRDVVMTDTSLTEEQAGPGEPAAPYFITKPVVQKLVEGGSVVFGCQVGGNPKPHVYWKKSGVPLTTGYRYKVSYNKQTGECKLVISMTFADDAGEYTIVVRNKHGETSASASLLE
modifications: NT-647 dye via NHS-driven amino coupling (only where it was the labelled partner, Figure 1B)
notes: titin, human, Ig domains Z4-Z5, residues 942-1173 of NM_001256850.1; Labelled with NT-647 in assay a3, unlabelled in assay a4; also called titin Ig domain Z4-Z5 peptide; titin Ig domain Z4-Z5 fragment; source: E. coli BL21-CodonPlus (DE3)-RIPL, purified (HisTrap, Superdex 75 SEC)
B1 showed a Kd [1] of 2.8 ± 0.5 µM, a Kd [2] of 7.2 ± 2.6 µM and a Kd [3] of 6.1 ± 0.8 µM.
